Laboratory results taken from the supplement of paper PMC10567573.

B1: IKZF1 (parent)
chain: HIKLHSGEKPFKCHLCNYACRRRD

Variants of: B1
Experiment: protein stability index of a GFP-peptide fusion (GPS, HEK-293T) (PSI 1-6); higher = more stable
Conditions: c terminus: a fixed tail appended
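Further: lentivirally expressed fusions sorted by FACS into six bins by GFP to DsRed ratio, PSI derived from sequencing read proportions per bin multiplied by bin number.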

Variant | protein stability index
C20Y | 1.86
C20L | 1.63
C20K | 1.64
C20P | 3.08
C20F | 2.25
C20A | 2.41
C20H | 1.94
C20V | 2.89
C20M | 2.5
R21E | 2.27
R21C | 1.78
R21N | 1.65
R21H | 2.27
R21T | 2.38
R21K | 2.19
R21W | 1.49
R21M | 1.79
R21Y | 1.58
R21P | 2.39
R21V | 1.3
F11L | 2.12
F11N | 1.77
F11H | 2.2
F11G | 2.06

Variant | protein stability index
F11T | 1.85
F11M | 2.21
F11V | 1.46
F11K | 2.6
F11S | 1.64
F11A | 2.75
F11I | 1.46
F11D | 2.15
E8Q | 1.56
E8C | 1.97
E8W | 2.28
E8L | 1.79
E8H | 1.93
E8F | 1.72
E8S | 2.22
E8P | 2.17
E8A | 1.92
E8M | 1.63
E8T | 1.59
E8G | 2.85
E8K | 1.5
E8R | 1.33
E8I | 1.74
E8V | 2.13

Variant | protein stability index
C16M | 2.04
C16Q | 2.12
C16R | 2.81
C16L | 2.26
C16F | 2.05
C16H | 2.29
C16N | 2.8
C16E | 3.02
C16P | 2.2
C16A | 2.04
C16K | 2.91
C16D | 2.98
S6T | 1.99
S6E | 3.3
S6Q | 1.88
S6G | 2.02
S6D | 1.97
S6N | 3.35
S6Y | 1.79
S6R | 2.24
S6K | 1.82
S6F | 2.19
S6P | 2.02
S6L | 1.93

Variant | protein stability index
S6V | 1.16
S6H | 1.96
S6C | 1.51
S6M | 2.13
S6W | 2.93
L4C | 2.33
L4S | 2.84
L4K | 4.07
L4D | 2.4
L4G | 2.21
L4I | 1.72
L4R | 2.48
L4H | 4.08
L4V | 1.31
L4N | 1.87
L4T | 1.63
L4E | 3.72
L4A | 1.99
L4Q | 4.68
P10M | 1.58
P10R | 1.74
P10G | 1.93
P10S | 1.75
P10L | 1.76

Variant | protein stability index
P10N | 2.16
P10E | 1.07
P10I | 2.19
P10F | 1.91
P10H | 1.67
P10Q | 1.43
P10C | 1.76
P10Y | 2.88
P10W | 2.31
P10V | 2.26
P10D | 2.14
L15G | 2.43
L15V | 1.78
L15H | 2.14
L15Y | 1.63
L15Q | 2.47
L15M | 1.36
L15R | 2.3
L15P | 2.64
L15E | 2.5
L15T | 2.92
L15I | 2.44
L15A | 2.28
L15F | 1.89

Variant | protein stability index
L15D | 1.74
L15W | 2.44
L15S | 2.11
H1M | 1.81
H1R | 2.13
H1Q | 1.26
H1N | 2.73
H1A | 1.05
H1P | 2.3
H1Y | 1.95
H1D | 1.59
H1C | 1.83
H1K | 2.09
H1T | 1.17
H1E | 2.21
H1I | 1.5
H1L | 2.04
K3D | 1.95
K3Y | 1.69
K3S | 1.91
K3W | 2.73
K3P | 3.67
K3Q | 2.03
K3A | 1.58

Variant | protein stability index
K3V | 1.83
K3G | 2.38
K3L | 1.99
K3R | 1.88
K3M | 1.51
K3E | 1.8
K3N | 2.11
N17S | 1.97
N17L | 2.07
N17H | 1.98
N17P | 1.56
N17M | 1.86
N17I | 2.86
N17A | 2.67
N17Q | 1.43
N17F | 2.79
N17V | 2.39
N17K | 1.2
N17C | 1.3
N17Y | 1.52
N17R | 1.53
N17T | 2.12
N17W | 1.62
